Reference: US20220220212A1 (RESEARCH FOUNDATION FOR THE STATE UNIVERSITY OF NEW YORK, published 2022)

B1: ECL2-scFv (scFv)
scFv: DYKDDDDKLQSVLTQPPSASGTPGQRVTISCSGSSSNIGSHTVNWYQQLPGTAPKLLIYRNNQRPSGVPDRFSGSKSGTSASLAISGLRSEDEADYYCAAWDDSLSGVVFGGGTKLTVLGEGKSSGSGSESKASQVTLKESGAEVKKPGASVKVSCKASGYTFTNFYIHWVRRAPGQGLEWMGIINPSDGRTTYAQKFQGRVTMTRDTSTSTLYMELTSLRSEDTAVYYCGRGGHYSNYFGQPSTWGQGTLVTVSSVEAS
notes: the construct as expressed is not described; also called 4h-scFv
B2: phage clone 13F (scFv)
scFv: LQAVLTQPSSLSASPGASASLTCILRSDFSVVTQRVYWYQQKPGSPPRYLLRYNSDSDKRLGSGVPSRFSGSKDVSANAASLLISGLQSDDEADYYCVIWHNSAVVFGGGTKLTVLGEGKSSGSGSESKASEVQLLESGAEVKKPGESLKISCKGSGYSFTSYWIGWVRQMPGKGLEWMGIIYPGDSDTRYSPSFQGQVTISADKSISTAYLQWSSLKASDTAMYYCARRPQYYDILTGWHAGWFDPWGQGTLVTVSS
notes: also called 13F-scFv
B3: phage clone 25B (scFv)
scFv: LQSVLTQPPSVSGAPGQKVTISCSGSSSNIGNNYVSWYQQLPGTAPKLLIYGNNKRPSGIPDRFSGSKSGTSATLGITGLQTGDEADYYCATWDDSLSAVVFGGGTKLTVLGEGKSSGSGSESKASQVTLKESGAEVKKPGASVKVSCKASGYTFTNFYIHWVRRAPGQGLEWMGIINPSDGRTTYAQKFQGRVTMTRDTSTSTLYMELTSLRSEDTAVYYCGRGGHYSNYFGQPSTWGQGTLVTVSS
notes: also called 25B-scFv
B4: phage clone 26B (scFv)
scFv: LQSVLTQPPSASGTPGQRVTISCSGSSSNIGSNYVYWYQQLPGTAPKLLIYRNNQRPSGVPDRFSGSKSGTSASLAISGLQSEDEADYYCAAWDDSLNGVVFGGGTELTVLGEGKSSGSGSESKASQVTLKESGAEVKKPGASVKVSCKASGYTFTNFYIHWVRRAPGQGLEWMGIINPSDGRTTYAQKFQGRVTMTRDTSTSTLYMELTSLRSEDTAVYYCGRGGHYSNYFGQPSTWGQGTLVTVSS
notes: also called 26B-scFv

What was measured:
[1] = target: T1, ECL2 domain of the CCR2 chemokine receptor; assay: binding assay of FIG. 16A,B on the ECL2 domain (method not given)
T1 construct: also called CCR2 ECL2; 2nd extracellular loop of CCR2
T1 peptide: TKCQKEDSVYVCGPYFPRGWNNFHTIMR

[2] = target: T2, biotinylated N-terminal domain CCR2 peptide (murine, biotinylated (position not given)); assay: phage ELISA on the N-terminal peptide
T2 construct: Bought from ABclonal; also called CCR2 N-terminal domain; CCR2 N-terminus
T2 peptide: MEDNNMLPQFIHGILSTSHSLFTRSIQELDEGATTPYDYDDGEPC
Experimental: Nunc MaxiSorp 96-well plates were coated with NeutrAvidin at 5 μg/mL and incubated overnight at 4° C. The plate was thoroughly washed with 0.1% PBS-Tween (PBST), and 5 μg/mL biotinylated N-terminal domain CCR2 peptide ([…] (SEQ ID NO:58); ABclonal, Woburn, Mass.) added and incubated for 1 h at room temperature. The wells were washed with 0.1% PBST and then blocked with casein blocking buffer for 1 h at room temperature. The wells were washed with 0.1% PBST followed by incubation of serially diluted scFv for 1 h at room temperature before being washed five times with 0.1% PBST. Washes were followed by the addition of 100 uL of the respective horse-radish peroxidase (HRP)-linked monoclonal antibody (mAb) for 1 h at room temperature with rocking. An anti-M13 mAb was used to detect phages (#27-9421-01, GE healthcare, Chicago, Ill.) and an anti-flag mAb was used to detect scFv (#A8592, Sigma Aldrich, St. Louis, Mo.). The wells were washed with 0.1% PBST followed by the addition of TMB-ELISA substrate. After 10 min incubation, 2 M H₂SO₄ was added to stop the reaction. The absorbance was measured at 450 nm with a FilterMax F3 & F5 multi-mode microplate reader (Molecular Devices, Sunnyvale, Calif.). A 1:1 binding ratio Hill model was used to fit the binding interaction data.

Binder | Kd [1] | binding result [2]
B1 | 5.3 nM | 
B2 |  | binds
B3 |  | binds
B4 |  | binds
